Test results taken from patent publication US20110110959A1 (BIOSCEPTRE AUST, published 2011).

How the values were obtained:
HLA (human) [1] = assay: FACS, MCF-7 breast tumour cell line
HLA (human) [2] = assay: FACS, human lymphocytes
U140 [3] = assay: ELISA, coated antigen, supernatant, duplicate 2
U80 [4] = assay: ELISA, coated antigen, supernatant, duplicate 2
[5] = molecular target: T1, 300 (a peptide having the sequence of the E300 region); assay: ELISA, coated antigen, supernatant, duplicate 2
T1 construct: also called E300 peptide
T1 peptide: KYYKENNVEKRTLIKVF

[6] = molecular target: T2, 200 (a peptide having the sequence of the E200 region); assay: ELISA, coated antigen, supernatant, duplicate 2
T2 construct: also called E200 peptide
T2 peptide: GHNYTTRNILPGLNITC

[7] = molecular target: T3, composite peptide GHNYTTRNILPGAGAKYYKENNVEK (BSA carrier protein attached for coating of ELISA plates); assay: ELISA, coated antigen, supernatant, duplicate 2
T3 construct: also called EP200/300; 200/300-peptide
T3 peptide: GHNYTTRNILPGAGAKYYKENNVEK

U140 [8] = assay: ELISA, coated antigen, supernatant, duplicate 1
U80 [9] = assay: ELISA, coated antigen, supernatant, duplicate 1
[10] = molecular target: T1, 300 (a peptide having the sequence of …); assay: ELISA, coated antigen, supernatant, duplicate 1
[11] = molecular target: T2, 200 (a peptide having the sequence of …); assay: ELISA, coated antigen, supernatant, duplicate 1
[12] = molecular target: T3, composite peptide …; assay: ELISA, coated antigen, supernatant, duplicate 1

Molecule: HLA (W6/32) Positive Control (antibody)
- Mean Fluorescence Intensity (MFI) (HLA (human) [1]): 1670 MFI
- Percent Cells Positive (HLA (human) [1]): 87%
- Mean Fluorescence Intensity (MFI) (HLA (human) [2]): 3900 MFI
- Percent Cells Positive (HLA (human) [2]): 100%

B1: 2A11 (antibody, V domains shown)
VH: QVQLQESGGGSVQAGGSLRLSCTASGFTLDDSDLGWYRQAPGNECELVSIIRRDGSPYHTYYPDSVKGRFTISQDNAKNTLYLQMNSLKPEDTAVYYCAADPSRYYSDYGAPGCGFNYWGQGTQVTVSS
- ELISA absorbance (405 nm, reference 490 nm) (U140 [3]): 0.508 OD
- ELISA absorbance (405 nm, reference 490 nm) (U80 [4]): 0.154 OD
- ELISA absorbance (405 nm, reference 490 nm) [5]: 0.186 OD
- ELISA absorbance (405 nm, reference 490 nm) [6]: 0.194 OD
- ELISA absorbance (405 nm, reference 490 nm) [7]: 3.6 OD
- ELISA absorbance (405 nm, reference 490 nm) (U140 [8]): 0.17 OD
- ELISA absorbance (405 nm, reference 490 nm) (U80 [9]): 0.181 OD
- ELISA absorbance (405 nm, reference 490 nm) [10]: 0.144 OD
- ELISA absorbance (405 nm, reference 490 nm) [11]: 0.138 OD
- ELISA absorbance (405 nm, reference 490 nm) [12]: 3.62 OD
